Laboratory results as given in the supplement of paper PMC9170038.

System: MS2 coat protein
Test: apparent KD of MS2 coat protein; higher = weaker reporter binding
Conditions: Eterna round: R107
Procedure: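 RNA-MaP round R107: designed RNA switches with theophylline, tryptophan, arginine or FMN aptamers are transcribed on-chip within common flanks. They are titrated with SNAP-549-labelled MS2 coat protein in RNA-MaP buffer (100 mM Tris pH 7.5, 80 mM KCl, 4 mM MgCl2), without ligand or with the indicated ligand. Median apparent KD per design.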

[1] = input ligand: theophylline 20 uM
[2] = input ligand: theophylline 2 mM
[3] = input ligand: tryptophan 2.4 mM

Sequence: ACAUGAGACAUGGAUACCAGCGACAUGAGGAUCACCCAUGUAUGAGGAUCACCCAUGUUAUGCCCUUGGCAGCCACAAACAUGAG [.PLMULLINP]
- apparent KD of MS2 coat protein (input ligand: arginine 13.2 mM): 19.8 nM
- apparent KD of MS2 coat protein (input ligand: none): 13.9 nM
- apparent KD of MS2 coat protein [1]: 30.8 nM
- apparent KD of MS2 coat protein [2]: 147 nM
- apparent KD of MS2 coat protein [3]: 15.2 nM

Sequence: ACAUGAGCAUCAGCCUUGUAGGAACUAGAUACCAGCCCAACAUGAGGCCCUUGGCAGCUGACAACAUGAGGAUCACCCAUGUCAC [Exclusion - Theophylline A #1]
- apparent KD of MS2 coat protein (input ligand: arginine 13.2 mM): 20.1 nM
- apparent KD of MS2 coat protein [1]: 36.3 nM
- apparent KD of MS2 coat protein [3]: 38.4 nM

Sequence: ACAUGAGGAUCACCCAUGUAAUGGCACGAUACCAGCUGAUCCCGUGGCCCUUGGCAGCGUCCGGUGUGGUCCGCCGGGUUGGACC [HHHMULLIN]
- apparent KD of MS2 coat protein (input ligand: arginine 13.2 mM): 59 nM
- apparent KD of MS2 coat protein (input ligand: none): 26 nM
- apparent KD of MS2 coat protein [1]: 49.1 nM
- apparent KD of MS2 coat protein [2]: 31.1 nM
- apparent KD of MS2 coat protein [3]: 36.2 nM

Sequence: ACAUGAGGAUCACCCAUGUAAUUAACAGAAGGAGCGUGAUGGAUCACAGGUAGGUCGCUGUACUUAGAAAUAACUCUCAUGAAUA [JR_Nu_SSArginiA_Sub024]
- apparent KD of MS2 coat protein (input ligand: arginine 13.2 mM): 15.2 nM
- apparent KD of MS2 coat protein (input ligand: none): 18.2 nM
- apparent KD of MS2 coat protein [1]: 27.6 nM
- apparent KD of MS2 coat protein [2]: 16.6 nM
- apparent KD of MS2 coat protein [3]: 17.1 nM

Sequence: ACAUGAGGAUCACCCAUGUACAUGACGGAAGGAGCGUGCAAAAGCACAGGUAGGUCGCCGAUCUACAUAUUGGGUAUUAUAUUUU [#29 Exclusion - Arginine A]
- apparent KD of MS2 coat protein (input ligand: arginine 13.2 mM): 15.4 nM
- apparent KD of MS2 coat protein (input ligand: none): 19.4 nM
- apparent KD of MS2 coat protein [1]: 35.7 nM
- apparent KD of MS2 coat protein [2]: 28.3 nM
- apparent KD of MS2 coat protein [3]: 24.2 nM

Sequence: ACAUGAGGAUCACCCAUGUAUGACUAUCCUCGAGGACCGGUACGGCCGCCACUCGAACGAGUGGCUCGCGAGUGCGCACUCGCGG [5'end-1]
- apparent KD of MS2 coat protein (input ligand: arginine 13.2 mM): 12.4 nM
- apparent KD of MS2 coat protein (input ligand: none): 11.4 nM
- apparent KD of MS2 coat protein [1]: 15.6 nM
- apparent KD of MS2 coat protein [2]: 12.9 nM
- apparent KD of MS2 coat protein [3]: 11.6 nM

Sequence: ACAUGAGGAUCACCCAUGUAUUACCGGGAAGGAGCGGCCGGAAGGCCAGGUAGGUCGCUCGGCGUCGUGCUGUAAAGCACGACGA [#1 Same State - Arginine A Attempt #27 (HarryS)]
- apparent KD of MS2 coat protein (input ligand: arginine 13.2 mM): 8.95 nM
- apparent KD of MS2 coat protein (input ligand: none): 14 nM
- apparent KD of MS2 coat protein [1]: 18.4 nM
- apparent KD of MS2 coat protein [2]: 12.2 nM
- apparent KD of MS2 coat protein [3]: 11.6 nM

Sequence: ACAUGAGGAUCACCCAUGUCAGGGCACGAUACCAGCUGAUCCGAUGGCCCUUGGCAGCGUUACGUGUGGUCAUGAGGAUCACCCG [pjbmullin]
- apparent KD of MS2 coat protein (input ligand: arginine 13.2 mM): 55.5 nM
- apparent KD of MS2 coat protein (input ligand: none): 59.3 nM
- apparent KD of MS2 coat protein [1]: 101 nM
- apparent KD of MS2 coat protein [2]: 76.8 nM
- apparent KD of MS2 coat protein [3]: 64.7 nM

Sequence: ACAUGAGGAUCACCCAUGUCUGCCACUGAUACCAGCGGAAGCCAACGCCCUUGGCAGCAGAACAUGAGGAUCACCCAUGUAGGCA [Same State Theophylline A GF26]
- apparent KD of MS2 coat protein (input ligand: arginine 13.2 mM): 52.8 nM
- apparent KD of MS2 coat protein [1]: 180 nM
- apparent KD of MS2 coat protein [3]: 256 nM

Sequence: ACAUGAGGAUCACCCAUGUGAAGGCACGAUACCAGCUGAUCCCGUGGCCCUUGGCAGCGUCCGGUUUGGUCCGGCGGAUGGGACG [vvamullin]
- apparent KD of MS2 coat protein (input ligand: arginine 13.2 mM): 13.1 nM
- apparent KD of MS2 coat protein (input ligand: none): 18.8 nM
- apparent KD of MS2 coat protein [1]: 33.6 nM
- apparent KD of MS2 coat protein [2]: 21.9 nM
- apparent KD of MS2 coat protein [3]: 23 nM

Sequence: ACAUGAGGAUCACCCAUGUGCAGAACGGAUACCAGCGUCCUGGUACGCCCUUGGCAGCCGGACAUGAGGAUCACCCAUGUGUGGA [Exclusion Theophylline A GF29]
- apparent KD of MS2 coat protein (input ligand: arginine 13.2 mM): 56 nM
- apparent KD of MS2 coat protein [1]: 161 nM
- apparent KD of MS2 coat protein [3]: 105 nM

Sequence: ACAUGAGGAUCACCCAUGUUAAACAGGGUGCGAGGACCGGUACGGCCGCCACUCGGACAUUAUUACGAGUGAAUGGCAACGAUGU [#12 Exclusion Tryptophan A]
- apparent KD of MS2 coat protein (input ligand: arginine 13.2 mM): 26.5 nM
- apparent KD of MS2 coat protein [1]: 24.1 nM
- apparent KD of MS2 coat protein [2]: 24.4 nM

Sequence: ACAUGAGGAUCACCCAUGUUCCUCAUUGAUACCAGUGAAUUUAGACGCCCUUGGCAGCGAGUUUUUUUAUAAGAUGUUUUUUUUU [6.H]
- apparent KD of MS2 coat protein (input ligand: arginine 13.2 mM): 244 nM
- apparent KD of MS2 coat protein [1]: 829 nM
- apparent KD of MS2 coat protein [3]: 1040 nM

Sequence: ACAUGUUGGUGGUAUCUACGAAGGCGGAAACGAGGACCGGUACGGCCGCCACUCGGCGACAUGAGGAUCACCCAUGUGGUUAAAA [Exclusion - Tryptophan A (Freestyle 5)]
- apparent KD of MS2 coat protein (input ligand: arginine 13.2 mM): 28.8 nM
- apparent KD of MS2 coat protein [1]: 96.9 nM
- apparent KD of MS2 coat protein [2]: 254 nM

Sequence: ACAUUUAACUGAAGGAGCGUGAUAUACAUGAGGAUCACCCAUGUGUCUUUCAUGAAUAAUUCACAGGUAGGUCGCAGACUAAUGA [JR_ExcArginiB_Sub008]
- apparent KD of MS2 coat protein (input ligand: arginine 13.2 mM): 40.4 nM
- apparent KD of MS2 coat protein (input ligand: none): 36.1 nM
- apparent KD of MS2 coat protein [1]: 50.3 nM
- apparent KD of MS2 coat protein [2]: 45.4 nM
- apparent KD of MS2 coat protein [3]: 37.6 nM
